# According to the nanobody polyreactivity screen of Harvey et al. (2022):
# Experiment: yeast display, Sf9 membrane polyspecificity reagent, FACS + sequencing; frameworks hold sequencing errors
# How it was run: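 Sorting gates, low and high (top ~1%), were placed on anti-HA fluorescence to track expression and on streptavidin fluorescence to track reagent binding. A clone's polyreactivity label is taken from the gate it came out of. The reagent was 10% biotinylated, detergent-solubilized Sf9 membrane, applied for 1 hour at 4 °C to galactose-induced yeast display cells.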
row,Sequence,polyreactivity (PSR sort gate)
1,QVQLVESGGGLVQAGGSLRLSCAASGRTFYTYAMGWYRQAPGNERELVATISSGGGRTYYADSVKGRFTISPDNAKKTVYLQRNSLNPEDTAVYYCAADKWENRYHAVSDTRPRDYWGQGTQVTVSS,low polyreactivity
2,QVQLVESGGGLVQAGGSLRLSCAASGRTFYVNAMGWYRQAPGKERELVARISSSGITYYADSVKGRFTISRDNAKNSVSLQMNSLKPEDTAVYYCAAGPWFYYWGLGTQVTVSS,low polyreactivity
3,QVQLVESGGGLVQAGGSLRLSCAASGRTFYVNAMGWYRQAPGKERELVARITSGGSTYYADSVKGRFTISRDKAKNTVYLQMNSVKPEDTAVYYCAADYVSLSVFSYWAWYDYWGQGTQVTVSS,low polyreactivity
4,QVQLVESGGGLVQAGGSLRLSCAASGRTFYVNDMGWYRQAPGKERELVAAISYRGGSTYYADSVKGRFTISRDNAKNTVYLQMNSLKPEDTAVYYCAAELTYRYRFYYLYSMYYWGQGTQVTVSS,low polyreactivity
5,QVQLVESGGGLVQAGGSLRLSCAASGRTFYVNTMGWYRPAPGKEREFVAAITWRDGSTYYADSVKGRFTISRDNAKNTVYPQMNSLKPEDTAVYYCAARNSHDGYYDEYYYWGQGTQVTVSS,low polyreactivity
6,QVQLVESGGGLVQAGGSLRLSCAASGRTFYVYAMGWYRQAPGKERELVAAIDFSSTSTYADSVKGRFTISRDNAKNTVYLQMNSLKPEDTAVYYCNVDPDLGGFDYWGQGTQVTVSS,low polyreactivity
7,QVQLVESGGGLVQAGGSLRLSCAASGRTFYVYAMGWYRQAPGKERELVAAISQDDGGTYYADSVKGRFTISRDNAKNTVYLQMNSLKPEDTAVYYCAAKEWRYGYDYGYWGQGTQVTVSS,low polyreactivity
8,QVQLVESGGGLVQAGGSLRLSCAASGRTFYVYDMGWYRQAPGKERELVAVISSSGSTNYADSVKGRFTISRDNAKNTVYLQMNSLKPEDTAVYYCNRRRWYFFSLDYWGQGTQVTVSS,high polyreactivity
9,QVQLVESGGGLVQAGGSLRLSCAASGRTFYVYVMGWYRQAPGKEREFVAAINYGSTYYADSVKGRFTISRDNAKNTVYLQMNSLIPEDTAVYYLGQGTQVTVSS,low polyreactivity
10,QVQLVESGGGLVQAGGSLRLSCAASGRTFYWYAMGWYRQAPGKERELVAGISSGGGTYYADSVKGRFTISRDNAKNTVYLQMNSLKPEDTAVYYCAAAWENIWVWQEYIEYDYWGQGTQVTVSS,low polyreactivity
11,QVQLVESGGGLVQAGGSLRLSCAASGRTFYWYTMGWYRQAPGKERELVAAISTRGVRTYYADSVKGRFTISRDNAKNTVYLQMNSLKPEDTAVYYGNDEYNPPYYTSHDDSDYWGQGTHVTVSS,low polyreactivity
12,QVQLVESGGGLVQAGGSLRLSCAASGRTFYYNAMGWSRQAPGKEREFVARITRSGTNTYYADSVKGRFTISRDNAKNTVYLQMNSLKPEDTAVYYCARRGTSSYRRYWLDSASNMDYWGQGTQVTVSS,high polyreactivity
13,QVQLVESGGGLVQAGGSLRLSCAASGRTFYYNAMGWYRQAPGKERELVAAISWSGGRTYYADSVKGRFTISRDNAKNTVYLQMNSLKPEDTAVYYCAATGFYSSHYHLDYWGQGTQVTVSS,high polyreactivity
14,QVQLVESGGGLVQAGGSLRLSCAASGRTFYYNAMGWYRQAPGKERELVAAITSAGSTNYADSVKGRFTISRDNAKNTVYLQMNSLKPEDTAVYYCAARYFYRSAWGTFVKNDSWGQGTQVTVSS,high polyreactivity
15,QVQLVESGGGLVQAGGSLRLSCAASGRTFYYNGMGWYRQAPGKERELVAAITSGGTTSYADSVKGRFTISRDNAKNTVYLQRNSLKPEDTAVYYCNADYWAVNYDYWGQATQVTVSS,low polyreactivity
16,QVQLVESGGGLVQAGGSLRLSCAASGRTFYYNTMGWYRQAPGKERELVAAITSRGSTYADSVKGRFTISRDNAKNTVYLQMNSLKPEDTAVYYCAAVWRYGSWYSGRLYEYWGQGTQVTVSS,high polyreactivity
